According to patent US20130109581A1, “POSITIVELY CHARGED SPECIES AS BINDING REAGENTS IN THE SEPARATION OF PROTEIN AGGREGATES FROM MONOMERS” (priority 2009, published 2013):

Target: Abeta 1-40 monomer (UniProt P05067)
Assay: MPA bead capture, Abeta 1-40 read-out of the CSF sample (noise)

Substance | average RLU (40)
KKKFKF-link (peptide) | 192 RLU
KKKKKK (peptide) | 197 RLU
